In publication PMC6751697 one finds percent of peptide bound (5 nM FAM-PL, 1 uM PCNA) data, which are given here for 1 substance.

The assay deals with fluorescein-labeled 16-mer Pogo Ligase peptide (FAM-PL). The experiment in a line: fluorescence polarisation.

Sequence of recombinant (His)6-PCNA protein (proliferating cell nuclear antigen) (P12004 whole entry): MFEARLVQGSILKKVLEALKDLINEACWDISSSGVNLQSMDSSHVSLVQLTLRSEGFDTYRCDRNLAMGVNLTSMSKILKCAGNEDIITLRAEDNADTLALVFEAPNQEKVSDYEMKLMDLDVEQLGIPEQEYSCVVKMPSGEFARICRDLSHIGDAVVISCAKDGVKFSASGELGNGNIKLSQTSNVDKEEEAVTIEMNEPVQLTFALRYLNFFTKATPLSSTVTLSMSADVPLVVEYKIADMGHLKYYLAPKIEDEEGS

Regarding “recombinant (His)6-PCNA protein (proliferating cell nuclear antigen) (from UniProt P12004 1-261) (natural protein)”, the percent of peptide bound (5 nM FAM-PL, 1 uM PCNA) is > 80%.
